Target: the molecule itself
Assay: non-reducing SDS-PAGE with immunoblot; whole cell lysate, crude or isolated mitochondria of yeast (tgl2Δ, yme1Δ, other deletion strains) expressing HA-tagged Tgl2 variants; reducing agents omitted during SDS-PAGE; anti-HA immunodecoration; dimer-sized band

B1: N terminally hemagglutinin (HA) tagged Tgl2 (natural protein, S. cerevisiae, UniProt P54857 1-326, looked up)
chain: MKNDNKANDIIIDSVKVPDSYKPPKNPIVFCHGLSGFDKLILIPSVFHLTNLISNSIVHNMAENFMQDDEDKSDNKYTNLLEIEYWIGVKKFLQSKGCTVITTKVPGFGSIEERAMALDAQLQKEVKKIESKDKRHSLNLIAHSMGGLDCRYLICNIKNRNYDILSLTTISTPHRGSEMADYVVDLFENLNALRVSQKILPICFYQLTTAYMKYFNLVTPNSPKVSYFSYGCSFVPKWYNVFCTPWKIVYERSKGCPNDGLVTINSSKWGEYRGTLKDMDHLDVINWKNKLQDDWSKFFRTTTVGEKVDILNFYLKITDDLARKGF
notes: Tgl2, putative mitochondrial triacylglycerol lipase of the intermembrane space, S. cerevisiae; also called HA-Tgl2; native-like HA-Tgl2; source: S. cerevisiae (tgl2Δ, yme1Δ and other deletion strains), overexpressed from plasmid pYX142; in whole cell lysate, crude or isolated mitochondria; not shown: HA, N-terminal, kept
stoichiometry N: 2

From paper PMC11889585, “Characterization of the putative yeast mitochondrial triacylglycerol lipase Tgl2” (The Journal of Biological Chemistry, 2025)
